According to the supplement of paper PMC7877785:
± gives the uncertainty stated by the source.

Test: self-splicing fitness, log relative to wild type (ln ratio); higher = more splicing; Tetrahymena group I intron in knt gene, E. coli kanamycin selection, DiMSum; sequences stand for … in CUCUCU…GGAGGGAAAAGUUAUCAGGCAUGCACCUGGUAGCUAGUCUUUAAACCAAUAGAUUGCAUCGGUUUAAAAGGCAAGACCGUCAAAUUGCGGGAAAGGGGUCAACAGCCGUUCAGUACCAAGUCUCAGGGGAAACUUUGAGAUGGCCUUGCAAAGGGUAUGGUAAUAAGCUGACGGACAUGGUCCUAACCACGCAGCCAAGUCCUAAGUCAACAGAUCUUCUGUUGAUAUGGAUGCAGUUCACAGACUAAAUGUCGGUCGGGGAAGAUGUAUUCUUCUCAUAAGAUAUAGUCGGACCUCUCCUUAAUGGGAGCUAGCGGAUGAAGUGAUGCAACACUGGAGCCGCUGGGAACUAAUUUGUAUGCGAAAGUAUAUUGAUUAGUUUUGGAGUACUCGUGGUCG
Outline: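 Six replicate transformations of E. coli BL21(DE3) with a pET-22b(+) library were grown overnight at 37°C or 30°C. The library randomised all eight P1ex-region intron nucleotides, the intron lying in the knt kanamycin-resistance gene, and plates were LB agar with or without 25 μg/mL kanamycin plus 100 μg/mL carbenicillin, 50 μM IPTG and 0.2% rhamnose. Pooled colonies were amplicon-sequenced on an Illumina HiSeq 2500, and fitness is the DiMSum error-weighted combination of wild-type-normalised replicate fold changes, kanamycin versus none.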

## CGCAAGCAAUAUUACGGUCC
30 °C
  self-splicing fitness (ln): -1.07 ± 0.076
37 °C
  self-splicing fitness (ln): -0.628 ± 0.12

## CGCAAGCAAUAUUACGGUGA
30 °C
  self-splicing fitness (ln): -0.78 ± 0.084
37 °C
  self-splicing fitness (ln): -0.469 ± 0.091

## CGCAAGCAAUAUUACGUACU
30 °C
  self-splicing fitness (ln): -1.64 ± 0.075
37 °C
  self-splicing fitness (ln): -0.119 ± 0.096

## CGCAAGCAAUAUUACGUAUA
30 °C
  self-splicing fitness (ln): -3.79 ± 0.44
37 °C
  self-splicing fitness (ln): -3.01 ± 0.2

## CGCAAGCAAUAUUACGUCUG
30 °C
  self-splicing fitness (ln): -1.13 ± 0.06
37 °C
  self-splicing fitness (ln): -0.286 ± 0.075

## CGCAAGCAAUAUUACGUUAA
30 °C
  self-splicing fitness (ln): -2.49 ± 0.18
37 °C
  self-splicing fitness (ln): -2.62 ± 0.21

## CGCAAGCAAUAUUACGUUAC
30 °C
  self-splicing fitness (ln): -4 ± 0.22
37 °C
  self-splicing fitness (ln): -3.23 ± 0.27

## CGCAAGCAAUAUUACGUUGC
30 °C
  self-splicing fitness (ln): -3.41 ± 0.17
37 °C
  self-splicing fitness (ln): -3.62 ± 0.29

## CGCAAGCAAUAUUACGUUUA
30 °C
  self-splicing fitness (ln): -2.8 ± 0.12
37 °C
  self-splicing fitness (ln): -1.98 ± 0.095

## CGCCAGCAAUAUUACGAAGC
37 °C
  self-splicing fitness (ln): -1.71 ± 0.19

## CGCCAGCAAUAUUACGACGU
30 °C
  self-splicing fitness (ln): -1.71 ± 0.076
37 °C
  self-splicing fitness (ln): -1.5 ± 0.094

## CGCCAGCAAUAUUACGCAGA
30 °C
  self-splicing fitness (ln): -3.57 ± 0.47
37 °C
  self-splicing fitness (ln): -2.53 ± 0.24

## CGCCAGCAAUAUUACGCAUG
30 °C
  self-splicing fitness (ln): -0.241 ± 0.077
37 °C
  self-splicing fitness (ln): -1.06 ± 0.1

## CGCCAGCAAUAUUACGCUCU
30 °C
  self-splicing fitness (ln): -1.6 ± 0.081
37 °C
  self-splicing fitness (ln): -1.06 ± 0.097

## CGCCAGCAAUAUUACGGAAG
30 °C
  self-splicing fitness (ln): -1.44 ± 0.064
37 °C
  self-splicing fitness (ln): -0.526 ± 0.077

## CGCCAGCAAUAUUACGGCGA
30 °C
  self-splicing fitness (ln): -3.29 ± 0.23
37 °C
  self-splicing fitness (ln): -1.84 ± 0.18

## CGCCAGCAAUAUUACGGUGC
30 °C
  self-splicing fitness (ln): -3.5 ± 0.17
37 °C
  self-splicing fitness (ln): -3.07 ± 0.3

## CGCCAGCAAUAUUACGGUUA
30 °C
  self-splicing fitness (ln): -0.708 ± 0.055
37 °C
  self-splicing fitness (ln): 0.0109 ± 0.058

## CGCCAGCAAUAUUACGGUUC
30 °C
  self-splicing fitness (ln): -2.29 ± 0.11
37 °C
  self-splicing fitness (ln): -1.54 ± 0.11

## CGCCAGCAAUAUUACGUAAU
30 °C
  self-splicing fitness (ln): -2.67 ± 0.12
37 °C
  self-splicing fitness (ln): -1.71 ± 0.15

## CGCCAGCAAUAUUACGUAUU
30 °C
  self-splicing fitness (ln): -3.2 ± 0.093
37 °C
  self-splicing fitness (ln): -2.71 ± 0.15

## CGCCAGCAAUAUUACGUCGC
30 °C
  self-splicing fitness (ln): -3.23 ± 0.16
37 °C
  self-splicing fitness (ln): -2.11 ± 0.2

## CGCCAGCAAUAUUACGUGGU
30 °C
  self-splicing fitness (ln): -3.15 ± 0.18
37 °C
  self-splicing fitness (ln): -3.22 ± 0.26

## CGCCAGCAAUAUUACGUGUC
30 °C
  self-splicing fitness (ln): -3.34 ± 0.15
37 °C
  self-splicing fitness (ln): -2.36 ± 0.14

## CGCCAGCAAUAUUACGUUAC
30 °C
  self-splicing fitness (ln): -1.91 ± 0.22
37 °C
  self-splicing fitness (ln): -3.49 ± 0.31

## CGCGAGCAAUAUUACGACUC
37 °C
  self-splicing fitness (ln): -1.14 ± 0.31

## CGCGAGCAAUAUUACGAGGA
30 °C
  self-splicing fitness (ln): -3.16 ± 0.22
37 °C
  self-splicing fitness (ln): -2.16 ± 0.18

## CGCGAGCAAUAUUACGCAAG
30 °C
  self-splicing fitness (ln): -2.92 ± 0.27
37 °C
  self-splicing fitness (ln): -2.91 ± 0.43

## CGCGAGCAAUAUUACGCGAA
30 °C
  self-splicing fitness (ln): -3.88 ± 0.43
37 °C
  self-splicing fitness (ln): -2.65 ± 0.23

## CGCGAGCAAUAUUACGGAAG
30 °C
  self-splicing fitness (ln): -1.78 ± 0.17
37 °C
  self-splicing fitness (ln): -2.32 ± 0.2

## CGCGAGCAAUAUUACGGAGA
30 °C
  self-splicing fitness (ln): -2.25 ± 0.23
37 °C
  self-splicing fitness (ln): -2.3 ± 0.33

## CGCGAGCAAUAUUACGGCAA
30 °C
  self-splicing fitness (ln): -4.21 ± 0.46
37 °C
  self-splicing fitness (ln): -1.97 ± 0.28

## CGCGAGCAAUAUUACGUAAG
30 °C
  self-splicing fitness (ln): -1.78 ± 0.096
37 °C
  self-splicing fitness (ln): -1.73 ± 0.12

## CGCGAGCAAUAUUACGUAAU
30 °C
  self-splicing fitness (ln): -3.36 ± 0.27
37 °C
  self-splicing fitness (ln): -3.23 ± 0.4

## CGCGAGCAAUAUUACGUACA
37 °C
  self-splicing fitness (ln): -2.71 ± 0.43

## CGCGAGCAAUAUUACGUACG
30 °C
  self-splicing fitness (ln): -2.6 ± 0.24
37 °C
  self-splicing fitness (ln): -1.5 ± 0.27

## CGCGAGCAAUAUUACGUACU
30 °C
  self-splicing fitness (ln): -3.32 ± 0.28
37 °C
  self-splicing fitness (ln): -2.3 ± 0.31

## CGCGAGCAAUAUUACGUAGG
30 °C
  self-splicing fitness (ln): -2.88 ± 0.14
37 °C
  self-splicing fitness (ln): -0.445 ± 0.12

## CGCGAGCAAUAUUACGUCCG
30 °C
  self-splicing fitness (ln): -2.81 ± 0.37
37 °C
  self-splicing fitness (ln): 1.32 ± 0.29

## CGCGAGCAAUAUUACGUUAG
30 °C
  self-splicing fitness (ln): -3.74 ± 0.21
37 °C
  self-splicing fitness (ln): -1.33 ± 0.18

## CGCGAGCAAUAUUACGUUGU
30 °C
  self-splicing fitness (ln): -3.93 ± 0.28
37 °C
  self-splicing fitness (ln): -2.4 ± 0.36

## CGCUAGCAAUAUUACGAAAU
30 °C
  self-splicing fitness (ln): -3.5 ± 0.22
37 °C
  self-splicing fitness (ln): -2.01 ± 0.2

## CGCUAGCAAUAUUACGAACU
30 °C
  self-splicing fitness (ln): -0.352 ± 0.12
37 °C
  self-splicing fitness (ln): -0.0958 ± 0.14

## CGCUAGCAAUAUUACGAAUG
30 °C
  self-splicing fitness (ln): -1.33 ± 0.17
37 °C
  self-splicing fitness (ln): -0.192 ± 0.16

## CGCUAGCAAUAUUACGAGAA
37 °C
  self-splicing fitness (ln): -1.99 ± 0.29

## CGCUAGCAAUAUUACGAGAG
30 °C
  self-splicing fitness (ln): -3.41 ± 0.24
37 °C
  self-splicing fitness (ln): -2.81 ± 0.38

## CGCUAGCAAUAUUACGAGUC
30 °C
  self-splicing fitness (ln): -1.8 ± 0.13
37 °C
  self-splicing fitness (ln): -1.01 ± 0.15

## CGCUAGCAAUAUUACGAUUC
30 °C
  self-splicing fitness (ln): -3.29 ± 0.36
37 °C
  self-splicing fitness (ln): -2.12 ± 0.21

## CGCUAGCAAUAUUACGCAAC
37 °C
  self-splicing fitness (ln): -1.61 ± 0.49
